Data published in paper PMC6430831.
Values belong to the substance of their own block, whether it stands above or below them.

Assays:
[1] = target: IKKε (UniProt Q14164); assay: anti-GEF-H1 co-IP, IKKε blot; conditions: sites S886
[2] = target: IRF5 (UniProt Q13568); assay: anti-GEF-H1 co-IP, IRF5 blot; conditions: reference: wild type; sites S886

binding against the reference ([1]; reference: S399A): gained
Substance: GEF-H1 (from UniProt Q92974) S399A/S886A

binding against the reference [2]: stronger | binding against the reference ([1]; reference: wild type): stronger
Substance: GEF-H1 (from UniProt Q92974) S886A

binding against the reference ([1]; reference: S324A): stronger
Substance: GEF-H1 (from UniProt Q92974) S324A/S886A
